Common to all, as to assay: fluorescence polarisation
Test [1] deals with T1, DegS P161A (E. coli, UniProt P0AEE3 27-355, P161A).
T1 sequence (looked up): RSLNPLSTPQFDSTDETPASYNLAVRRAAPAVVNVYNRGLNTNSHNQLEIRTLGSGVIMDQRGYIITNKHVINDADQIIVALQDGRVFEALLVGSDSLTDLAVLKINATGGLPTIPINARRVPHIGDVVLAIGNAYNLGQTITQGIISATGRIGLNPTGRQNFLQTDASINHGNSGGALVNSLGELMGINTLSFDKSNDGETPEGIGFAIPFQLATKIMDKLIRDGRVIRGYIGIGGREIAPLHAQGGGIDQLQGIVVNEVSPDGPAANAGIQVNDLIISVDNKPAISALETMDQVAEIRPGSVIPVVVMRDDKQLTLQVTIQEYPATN

The target of test [2] is T2, DegS L164A/H198P (E. coli, UniProt P0AEE3 27-355, L164A | H198P).
T2 sequence (looked up): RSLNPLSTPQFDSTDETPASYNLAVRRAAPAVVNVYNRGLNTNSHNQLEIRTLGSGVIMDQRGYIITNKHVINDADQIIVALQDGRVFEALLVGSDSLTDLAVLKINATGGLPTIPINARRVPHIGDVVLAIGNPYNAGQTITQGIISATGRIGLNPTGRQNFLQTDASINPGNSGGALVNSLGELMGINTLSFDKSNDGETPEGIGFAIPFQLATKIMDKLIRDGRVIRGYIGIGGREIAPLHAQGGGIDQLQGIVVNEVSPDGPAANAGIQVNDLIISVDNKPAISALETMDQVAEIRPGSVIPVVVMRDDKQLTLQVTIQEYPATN

The target in test [3] is T3, DegS H198P/E230A (E. coli, UniProt P0AEE3 27-355, H198P | E230A).
T3 sequence (looked up): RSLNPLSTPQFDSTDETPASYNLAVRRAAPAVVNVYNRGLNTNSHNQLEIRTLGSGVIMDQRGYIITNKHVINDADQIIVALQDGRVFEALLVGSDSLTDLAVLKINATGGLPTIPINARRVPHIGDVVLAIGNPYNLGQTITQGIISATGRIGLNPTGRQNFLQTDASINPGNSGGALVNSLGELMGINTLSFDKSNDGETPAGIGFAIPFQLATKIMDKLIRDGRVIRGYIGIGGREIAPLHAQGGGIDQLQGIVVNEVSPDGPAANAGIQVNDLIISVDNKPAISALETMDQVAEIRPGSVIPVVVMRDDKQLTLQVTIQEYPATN

The target in test [4] is T4, DegS N197A/H198P (E. coli, UniProt P0AEE3 27-355, N197A | H198P).
T4 sequence (looked up): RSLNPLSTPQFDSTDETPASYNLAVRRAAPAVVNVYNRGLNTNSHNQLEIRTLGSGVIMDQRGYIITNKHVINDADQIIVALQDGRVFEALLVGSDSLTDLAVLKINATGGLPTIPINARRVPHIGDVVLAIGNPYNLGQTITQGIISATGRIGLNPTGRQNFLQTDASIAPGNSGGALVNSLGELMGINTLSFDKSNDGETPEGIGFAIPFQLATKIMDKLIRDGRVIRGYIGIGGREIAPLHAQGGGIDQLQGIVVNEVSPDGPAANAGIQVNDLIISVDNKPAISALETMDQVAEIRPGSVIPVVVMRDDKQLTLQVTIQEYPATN

Test [5] deals with T5, DegS N197A (E. coli, UniProt P0AEE3 27-355, N197A).
T5 sequence (looked up): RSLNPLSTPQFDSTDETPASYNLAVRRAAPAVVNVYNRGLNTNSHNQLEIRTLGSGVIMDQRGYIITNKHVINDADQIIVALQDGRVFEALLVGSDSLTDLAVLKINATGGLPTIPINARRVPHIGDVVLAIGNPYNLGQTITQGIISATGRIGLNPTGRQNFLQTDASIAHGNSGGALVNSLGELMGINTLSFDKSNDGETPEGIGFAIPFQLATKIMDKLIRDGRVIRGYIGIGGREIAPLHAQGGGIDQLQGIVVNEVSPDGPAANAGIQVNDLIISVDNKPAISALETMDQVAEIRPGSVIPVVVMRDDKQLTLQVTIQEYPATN

Test [6] deals with T6, DegS F234A (E. coli, UniProt P0AEE3 27-355, F234A).
T6 sequence (looked up): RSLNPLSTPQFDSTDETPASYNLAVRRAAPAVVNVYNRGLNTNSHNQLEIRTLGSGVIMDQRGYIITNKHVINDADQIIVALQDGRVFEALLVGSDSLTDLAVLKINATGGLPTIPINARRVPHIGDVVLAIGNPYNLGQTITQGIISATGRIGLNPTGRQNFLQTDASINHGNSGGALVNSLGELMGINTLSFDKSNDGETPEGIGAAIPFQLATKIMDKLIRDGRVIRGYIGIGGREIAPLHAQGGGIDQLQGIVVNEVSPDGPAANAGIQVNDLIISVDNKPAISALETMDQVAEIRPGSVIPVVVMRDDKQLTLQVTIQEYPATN

Our source for the Kd values is publication PMC4351158 (Structure (London, England : 1993), 2015).

Where no end group is shown, it is not given here. fluorescein = fluorescein, a fluorescent label on the peptide N-terminus

B1: fluorescent OMP peptide fluorescein-DNRDGNVYYF (peptide)
peptide: fluorescein-DNRDGNVYYF
In the case of B1, the Kd in test [1] came out at 1500 ± 100 nM; in test [2], 2500 ± 500 nM; in test [3], 1800 ± 400 nM; in test [4], 700 ± 100 nM; in test [5], 1400 ± 100 nM; in test [6], 5900 ± 600 nM.
